Measurements published in patent US20050214302A1, “Use of emmprin antagonists for the treatment of diseases associated with excessive angiogenesis” (priority 2004, published 2005).

What was measured:
[1] = system: HMVEC-L cells; test: Recombinant EMMPRIN stimulation of MMP-1 production by HMVEC-L cells (MMP-1 activity kit); assay type: cell-based, human
Method: HMVEC-L cells were obtained from Clonetics, Walkersville, Md. (Cat# CC-2527, Lot# 8F1528). HMVEC-L cells were cultured under conditions recommended by the supplier. Briefly, cells were cultured in Endothelium Cell Growth Medium MV (EGM-2 MV, Clonetics, Cat#CC-3202) containing human epithelial growth factor (hEGF), hydrocortisone, human basic fibroblast growth factor (hFGF-B), vascular endothelial growth factor (VEGF), human insulin-like growth factor-1 (hIGF-1), ascorbic acid, gentamicin, 5% FBS, at 37° C., 5% CO2.
Early passage cells (less than passage 3) were trypsinized and washed with RPMI-1640 once. Cells were resuspended in Dilution Medium (DM−Fibroblast Basic Medium+2% FBS) at a concentration of 5×100,000 cells/ml. 100 μl of the cell suspension containing 50,000 cells was added into each well in a 96 well cell culture plate. […]
Quantitative detection of MMP-1 activity in the conditioned medium was carried out using Human MMP-1 Activity Kit (R&D Systems, Minneapolis, Minn.) (Cat#F1M00). […] MMP substrate added into each well was cleaved by active MMP-1 and the resulting fluorescence was determined using SpectraFluor Plus Plate Reader (TECAN, Zurich, Switzerland) (Cat# F129005, Ser# 94747) with the following parameters: excitation wavelength at 320 nm and emission wavelength at 405 nm.

[2] = system: NHLF cells; test: Recombinant EMMPRIN stimulation of MMP-1 production by NHLF cells; assay type: cell-based, human; settings: same treatment (20 μg/ml EMMPRIN)
[3] = system: angiogenesis in Matrigel plugs; test: Matrigel plug angiogenesis assay in vivo; settings: suboptimal doses of FGF or VEGF, mice, expected
Text: The role of EMMPRIN in angiogenesis will be directly investigated in vivo using Matrigel plug assays. Matrigel is a solubilized basement membrane preparation extracted from the Engel-Holm-Swarm (EHS) mouse sarcoma, a tumor rich in extracellular matrix proteins. The major component is laminin, but Matrigel also contains trace amounts of fibroblast growth factor, TGF-beta, tissue plasminogen activator, and other growth factors that occur naturally in the EHS tumor. Matrigel is the basis for several types of tumor cell invasion assays and provides the necessary substrate for the study of angiogenesis. Matrigel forms a soft gel plug when injected subcutaneously into mice or rats and supports an intense vascular response when supplemented with angiogenic factors.
Matrigel plugs containing suboptimal doses of angiogenic growth factors, such as basic fibroblast growth factor (FGF), or vascular endothelial cell growth factor (VEGF) can be implanted into mice to induce angiogenesis in vivo. Some of these plugs are supplemented with various doses of recombinant EMMPRIN.

B1: recombinant EMMPRIN: recombinant protein corresponding to the extracellular domain of human EMMPRIN, produced in NSO cells (R&D Systems) (protein, UniProt P35613 138-323, looked up)
extracellular domain: EPGTVFTTVEDLGSKILLTCSLNDSATEVTGHRWLKGGVVLKEDALPGQKTEFKVDSDDQWGEYSCVFLPEPMGTANIQLHGPPRVKAVKSSEHINEGETAMLVCKSESVPPVTDWAWYKITDSEDKALMNGSESRFFVSSSQGRSELHIENLNMEADPGQYRCNGTSSKGSDQAIITLRVRSHLA
modifications: extracellular domain
Question: How did the “Stimulation of MMP-1 production in endothelial cells (result in words)” value ([1]; 0.08-20 μg/ml EMMPRIN, 1 day and 3 days, FIG. 2) turn out when B1 was run?
Answer: dose-dependently stimulated MMP-1 production

Question: And the “MMP-1 produced by HMVEC-L cells” value ([1]; treated with 20 μg/ml EMMPRIN)?
Answer: approximately 40 ng/ml

Question: What about the “MMP-1 produced by NHLF cells relative to HMVEC-L” value [2] of the same molecule?
Answer: only half of that amount

Question: What about the “Angiogenesis in Matrigel plugs supplemented with recombinant EMMPRIN” value [3] of the same molecule?
Answer: increase in angiogenesis
